Reference: US11278600B2, “Human alpha-galactosidase variants” (Codexis, Inc., priority 2014, dated 2022)

Legend:
Format in all cases: biochemical
[1] = HTP-analysis of yeast culture supernatants, no challenge (MUGal hydrolysis); conditions: activity of the variant/activity of Rd3BB (SEQ ID NO: 13)
Outline: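 GLA variants expressed in yeast INVSc1, secreted into SD-Ura broth over 66-84 h at 30° C; clarified supernatants tested without challenge. Supernatant mixed with McIlvaine buffer pH 4.8 and 2 mM MUGal (citrate/KCl, pH 4.6), 37° C for 30-180 min, carbonate-quenched, fluorescence Ex 355/Em 448 nm.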

[2] = HTP-analysis of supernatants pretreated with base (MUGal hydrolysis); conditions: activity of the variant/activity of Rd3BB (SEQ ID NO: 13); challenge at pH 9.7
Outline: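 Supernatants from INVSc1 yeast expressing GLA variants (SD-Ura, 66-84 h, 30° C) were mixed with McIlvaine buffer pH 7.0-8.2 or 200 mM sodium bicarbonate pH 9.1-9.7 and held 1-18 h at 37° C. Residual activity was then measured on MUGal at pH 4.8/4.3, 37° C, 30-180 min, by fluorescence (Ex 355/Em 448 nm).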

[3] = HTP-analysis of supernatants pretreated with acid (MUGal hydrolysis); conditions: activity of the variant/activity of Rd3BB (SEQ ID NO: 13); challenge at pH 3.7
Outline: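 Fluorescence of MUGal hydrolysis (Ex. 355 nm, Em. 448 nm) is read after sodium carbonate quench. The enzyme source is INVSc1 yeast culture supernatant, first exposed to pH 3.3-4.3 McIlvaine buffer at 37° C. for 1-3 h, then reacted at pH 4.8 for 30-180 minutes.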

Molecule | Relative Activity of GLA Variants After No Challenge (NC) [1] | Relative Activity of GLA Variants After Challenge at pH 9.7 [2] | Relative Activity of GLA Variants After Challenge at pH 3.7 [3]
601 (protein, Synthetic Polypeptide sequence of Variant No. 601 of mature Human GLA) LDNGLARTPTMGWLHWERFMCNLDCQEEPDSCISEKLFCEMAERMVSEGWKDAGYEYLCIDDCWMAPQRDSEGRLQADPQRFPHGIRQLANHVHSKGLKLGIYADVGNKTCAGFPGSFGYYDIDAQTFADWGVDLLKFDGCYCDSLENLADGYKHMSLALNRTGRSIVYSCEWPLYMWPFQKPNYTEIRQYCNHWRNFADIDDSWASIKSILDWTSRNQERIVDVAGPGGWNDPDMLVIGNFGLSWDQQVTQMALWAIMAAPLFMSNDLRHISPQAKALLQDKDVIAINQDPLGKQGYQLRKGDNFEVWERPLSGDAWAVAIINRQEIGGPRSYTIPVASLGKGVACNPACFITQLLPVKRQLGFYNWTSRLKSHINPTGTVLLQLENTMQMSLKDLL | − (− = <1.5 relative activity to Rd3BB (SEQ ID NO: 13)) | + (+ = 1.5 to 5 relative activity over Rd3BB (SEQ ID NO: 13)) | + (+ = 1.5 to 5 relative activity over Rd3BB (SEQ ID NO: 13))
602 (protein, Synthetic Polypeptide sequence of Variant No. 602 of mature Human GLA) LDNGLARTPTMGWLHWERFMCNLDCQEEPDSCISEKLFEEMAERMVSEGWKDAGYEYLCIDDCWMAPQRDSEGRLQADPQRFPHGIRQLANHVHSKGLKLGIYADVGNKTCAGFPGSFGYYDIDAQTFADWGVDLLKFDGCYCDSLENLADGYKHMSLALNRTGRSIVYSCEWPLYMWPFQKPNYTEIRQYCNHWRNFADIDDSWASIKSILDWTSRNQERIVDVAGPGGWNDPDMLVIGNFGLSWDQQVTQMALWAIMAAPLFMSNDLRHISPQAKALLQDKDVIAINQDPLGKQGYQLRKGDNFEVWERPLSGDAWAVAIINRQEIGGPRSYTIPVASLGKGVACNPACFITQLLPVKRQLGFYNWTSRLKSHINPTGTVLLQLENTMQMSLKDLL | + (+ = 1.5 to 5 relative activity over Rd3BB (SEQ ID NO: 13)) | ++ (++ = >5 to 10 relative activity over Rd3BB (SEQ ID NO: 13)) | + (+ = 1.5 to 5 relative activity over Rd3BB (SEQ ID NO: 13))
604 (protein, Synthetic Polypeptide sequence of Variant No. 604 of mature Human GLA) LDNGLARTPTMGWLHWERFMCNLDCQEEPDSCISEKLFVEMAERMVSEGWKDAGYEYLCIDDCWMAPQRDSEGRLQADPQRFPHGIRQLANHVHSKGLKLGIYADVGNKTCAGFPGSFGYYDIDAQTFADWGVDLLKFDGCYCDSLENLADGYKHMSLALNRTGRSIVYSCEWPLYMWPFQKPNYTEIRQYCNHWRNFADIDDSWASIKSILDWTSRNQERIVDVAGPGGWNDPDMLVIGNFGLSWDQQVTQMALWAIMAAPLFMSNDLRHISPQAKALLQDKDVIAINQDPLGKQGYQLRKGDNFEVWERPLSGDAWAVAIINRQEIGGPRSYTIPVASLGKGVACNPACFITQLLPVKRQLGFYNWTSRLKSHINPTGTVLLQLENTMQMSLKDLL | + (+ = 1.5 to 5 relative activity over Rd3BB (SEQ ID NO: 13)) | ++ (++ = >5 to 10 relative activity over Rd3BB (SEQ ID NO: 13)) | + (+ = 1.5 to 5 relative activity over Rd3BB (SEQ ID NO: 13))
606 (protein, Synthetic Polypeptide sequence of Variant No. 606 of mature Human GLA) LDNGLARTPPMGWLHWERFMCNLDCQEEPDSCISEKLFMEMAERMVSEGWKDAGYEYLCIDDCWMAPQRDSEGRLQADPQRFPHGIRQLANHVHSKGLKLGIYADVGNKTCAGFPGSFGYYDIDAQTFADWGVDLLKFDGCYCDSLENLADGYKHMSLALNRTGRSIVYSCEWPLYMWPFQKPNYTEILQYCNHWRNFADIDDSWASIKSILDWTSRNQERIVDVAGPGGWNDPDMLVIGNFGLSWDQQVTQMALWAIMAAPLFMSNDLRHISPQAKALLQDKDVIAINQDPLGKQGYQLRKGDNFEVWERPLSGDAWAVAIINRQEIGGPRSYTIPVASLGKGVACNPACFITQLLPVKRQLGFYNWTSRLKSHINPTGTVLLQLENTMQMSLKDLL | + (+ = 1.5 to 5 relative activity over Rd3BB (SEQ ID NO: 13)) | ++ (++ = >5 to 10 relative activity over Rd3BB (SEQ ID NO: 13)) | +++ (+++ = >10 relative activity over Rd3BB (SEQ ID NO: 13))
603 (protein, Synthetic Polypeptide sequence of Variant No. 603 of mature Human GLA) LDNGLARTPTMGWLHWERFMCNLDCQEEPDSCISEKLFREMAERMVSEGWKDAGYEYLCIDDCWMAPQRDSEGRLQADPQRFPHGIRQLANHVHSKGLKLGIYADVGNKTCAGFPGSFGYYDIDAQTFADWGVDLLKFDGCYCDSLENLADGYKHMSLALNRTGRSIVYSCEWPLYMWPFQKPNYTEIRQYCNHWRNFADIDDSWASIKSILDWTSRNQERIVDVAGPGGWNDPDMLVIGNFGLSWDQQVTQMALWAIMAAPLFMSNDLRHISPQAKALLQDKDVIAINQDPLGKQGYQLRKGDNFEVWERPLSGDAWAVAIINRQEIGGPRSYTIPVASLGKGVACNPACFITQLLPVKRQLGFYNWTSRLKSHINPTGTVLLQLENTMQMSLKDLL | + (+ = 1.5 to 5 relative activity over Rd3BB (SEQ ID NO: 13)) | + (+ = 1.5 to 5 relative activity over Rd3BB (SEQ ID NO: 13)) | + (+ = 1.5 to 5 relative activity over Rd3BB (SEQ ID NO: 13))
605 (protein, Synthetic Polypeptide sequence of Variant No. 605 of mature Human GLA) LDNGLARTPPMGWLHWERFMCNLDCQEEPDSCISEKLFMEMAERMVSEGWKDAGYEYLCIDDCWMAPQRDSEGRLQADPQRFPHGIRQLANHVHSKGLKLGIYADVGNKTCAGFPGSFGYYDIDAQTFADWGVDLLKFDGCYCDSLENLADGYKHMSLALNRTGRSIVYSCEWPLYMWPFQKPNYTEIRQYCNHWRNFADIDDSWASIKSILDWTSRNQERIVDVAGPGGWNDPDMLVIGNFGLSWDQQVTQMALWAIMAAPLFMSNDLRHISPQAKALLQDKDVIAINQDPLGKQGYQLRKGDNFEVWERPLSGDAWAVAIINRQEIGGPRSYTIPVASLGKGVACNPACFITQLLPVKRQLGFYNWTSRLKSHINPTGTVLLQLENTMQMSLKDLL | + (+ = 1.5 to 5 relative activity over Rd3BB (SEQ ID NO: 13)) | ++ (++ = >5 to 10 relative activity over Rd3BB (SEQ ID NO: 13)) | +++ (+++ = >10 relative activity over Rd3BB (SEQ ID NO: 13))
607 (protein, Synthetic Polypeptide sequence of Variant No. 607 of mature Human GLA) LDNGLARLPTMGWLHWERFMCNLDCQEEPDSCISEKLFMEMAERMVSEGWKDAGYEYLCIDDCWMAPQRDSEGRLQADPQRFPHGIRQLANHVHSKGLKLGIYADVGNKTCAGFPGSFGYYDIDAQTFADWGVDLLKFDGCYCDSLENLADGYKHMSLALNRTGRSIVYSCEWPLYMWPFQKPNYTEIRQYCNHWRNFADIDDSWASIKSILDWTSRNQERIVDVAGPGGWNDPDMLVIGNFGLSWDQQVTQMALWAIMAAPLFMSNDLRHISPQAKALLQDKDVIAINQDPLGKQGYQLRKGDNFEVWERPLSGDAWAVAIINRQEIGGPRSYTIPVASLGKGVACNPACFITQLLPVKRQLGFYNWTSRLKSHINPTGTVLLQLENTMQMSLKDLL | + (+ = 1.5 to 5 relative activity over Rd3BB (SEQ ID NO: 13)) | ++ (++ = >5 to 10 relative activity over Rd3BB (SEQ ID NO: 13)) | + (+ = 1.5 to 5 relative activity over Rd3BB (SEQ ID NO: 13))
522 (protein, Synthetic Polypeptide sequence of Variant No. 522 of mature Human GLA) LDNGLARTPTMGWLHWERFMCNLDCQEEPDSCISEKLFMEMAERMVSEGWKDAGYKYLCIDDCWMAPQRDSEGRLQADPQRFPHGIRQLANHVHSKGLKLGIYADVGNKTCAGFPGSFGYYDIDAQTFADWGVDLLKFDGCYCDSLENLADGYKHMSLALNRTGRSIVYSCEWPLYMWPFQKPNYTEIRQYCNHWRNFADIDDSWASIKSILDWTSRNQERIVDVAGPGGWNDPDMLVIGNFGLSWDQQVTQMALWAIMAAPLFMSNDLRHISPQAKALLQDKDVIAINQDPLGKQGYQLRKGDNFEVWERPLSGDAWAVAIINRQEIGGPRSYTIPVASLGKGVACNPACFITQLLPVKRQLGFYNWTSRLKSHINPTGTVLLQLENTMQMSLKDLL | + (+ = 1.5 to 5 relative activity over Rd3BB (SEQ ID NO: 13)) | ++ (++ = >5 to 10 relative activity over Rd3BB (SEQ ID NO: 13)) | +++ (+++ = >10 relative activity over Rd3BB (SEQ ID NO: 13))
